Results on one molecule are retold here after publication PMC9944232.

Data set [1] has as its target AIFΔ101 D489A/K518A (Homo sapiens, UniProt O95831 102-613, D489A;K518A). The data set can be described thus: ITC; binary; ITC: 50 mM potassium phosphate pH 7.4, 15 °C (25 °C with CypA); EMSA: same buffer, 25 °C, 30 min, 2% agarose; AFM on mica at room temperature. The conditions noted are these: protein: recombinant; tags: N-terminal His6; blunt. Background: Isothermal titration calorimetry measures the heat released or taken up as one component is titrated into another.

Data set [2] concerns the target AIFΔ101 K510A/K518A (Homo sapiens, UniProt O95831 102-613, K510A;K518A). The description is as above. The conditions noted are these: protein: recombinant; tags: N-terminal His6; blunt.
Data set [3] has as its target AIFΔ101 WT (Homo sapiens, UniProt O95831 102-613). The data set can be described thus: ITC; binary, no added metal; 15 °C; ITC: 50 mM potassium phosphate pH 7.4, 15 °C (25 °C with CypA); EMSA: same buffer, 25 °C, 30 min, 2% agarose; AFM on mica at room temperature. The following applies: protein: recombinant; tags: N-terminal His6; blunt.
Data set [4] addresses AIFΔ101 WT;CypA (Homo sapiens;Homo sapiens, UniProt O95831;P62937 102-613;1-165, |). The data set can be described thus: ITC; dsDNA titrated into AIF:CypA 1:1; negative cooperativity; ITC: 50 mM potassium phosphate pH 7.4, 15 °C (25 °C with CypA); EMSA: same buffer, 25 °C, 30 min, 2% agarose; AFM on mica at room temperature. The following applies: protein: recombinant;recombinant; tags: N-terminal His6;N-terminal His6; copies: 1;1; blunt.

Data set [5] deals with AIFΔ101 WT;Histone H2AX (Homo sapiens;Homo sapiens, UniProt O95831;P16104 102-613;1-143, |). The data set can be described thus: ITC; dsDNA titrated into AIF:H2AX 1:1; positive cooperativity; ITC: 50 mM potassium phosphate pH 7.4, 15 °C (25 °C with CypA); EMSA: same buffer, 25 °C, 30 min, 2% agarose; AFM on mica at room temperature. The conditions noted are these: protein: recombinant;recombinant; tags: N-terminal His6;N-terminal His6 (PreScission site); copies: 1;1; blunt.
Chain of AIFΔ101 WT;Histone H2AX (O95831 102-613, stated change not applied, chain 1 of 2, other chains not shown): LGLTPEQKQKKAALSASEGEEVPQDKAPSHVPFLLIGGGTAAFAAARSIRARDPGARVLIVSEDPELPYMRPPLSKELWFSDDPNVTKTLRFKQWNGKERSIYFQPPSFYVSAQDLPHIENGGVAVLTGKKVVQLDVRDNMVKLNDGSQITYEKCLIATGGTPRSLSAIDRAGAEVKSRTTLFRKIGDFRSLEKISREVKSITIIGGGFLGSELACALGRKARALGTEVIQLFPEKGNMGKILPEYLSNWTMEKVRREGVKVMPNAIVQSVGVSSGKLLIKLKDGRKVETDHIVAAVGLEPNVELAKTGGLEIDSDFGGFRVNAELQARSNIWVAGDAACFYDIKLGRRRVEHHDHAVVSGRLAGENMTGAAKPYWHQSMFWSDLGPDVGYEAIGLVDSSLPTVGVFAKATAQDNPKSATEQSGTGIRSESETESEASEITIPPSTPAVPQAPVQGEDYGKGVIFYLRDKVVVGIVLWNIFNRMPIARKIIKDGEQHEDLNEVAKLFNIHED

In data set [6] the target is Histone H2AX (Homo sapiens, UniProt P16104 1-143). The data set can be described thus: ITC; binary; stronger than CypA; value in Table S4 not in material; ITC: 50 mM potassium phosphate pH 7.4, 15 °C (25 °C with CypA); EMSA: same buffer, 25 °C, 30 min, 2% agarose; AFM on mica at room temperature. The conditions noted are these: protein: recombinant; tags: N-terminal His6 (PreScission site); blunt.

Data set [7] concerns the target AIFΔ101 WT;CypA;Histone H2AX (Homo sapiens;Homo sapiens;Homo sapiens, UniProt O95831;P62937;P16104 102-613;1-165;1-143, ||). The data set can be described thus: ITC; dsDNA titrated into AIF:CypA with varied H2AX; intrinsic Kd from cooperativity fit, alpha 9.7; ITC: 50 mM potassium phosphate pH 7.4, 15 °C (25 °C with CypA); EMSA: same buffer, 25 °C, 30 min, 2% agarose; AFM on mica at room temperature. The conditions noted are these: protein: recombinant;recombinant;recombinant; tags: N-terminal His6;N-terminal His6;N-terminal His6 (PreScission site); copies: 1;1;1; blunt.

Chain of AIFΔ101 K510A/K518A (O95831 102-613 K510A/K518A): as the sequence (O95831 102-613, stated change not applied, chain 1 of 2, other chains not shown) above, with K409A, K417A counted along it
Chain of AIFΔ101 D489A/K518A (O95831 102-613 D489A/K518A): as the sequence (O95831 102-613, stated change not applied, chain 1 of 2, other chains not shown) above, with D388A, K417A counted along it
Chain of AIFΔ101 WT;CypA;Histone H2AX (O95831 102-613, stated change not applied, chain 1 of 3, other chains not shown): as the sequence (O95831 102-613, stated change not applied, chain 1 of 2, other chains not shown) above
Chain of AIFΔ101 WT;CypA;Histone H2AX (P62937 whole entry, stated change not applied, chain 2 of 3, other chains not shown): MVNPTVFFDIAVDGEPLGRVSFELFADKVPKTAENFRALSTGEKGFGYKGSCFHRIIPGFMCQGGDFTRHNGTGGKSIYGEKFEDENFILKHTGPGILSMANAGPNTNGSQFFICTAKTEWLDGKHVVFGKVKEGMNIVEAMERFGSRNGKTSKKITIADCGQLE
Chain of AIFΔ101 WT (O95831 102-613, stated change not applied): as the sequence (O95831 102-613, stated change not applied, chain 1 of 2, other chains not shown) above
Chain of AIFΔ101 WT;CypA (O95831 102-613, stated change not applied, chain 1 of 2): as the sequence (O95831 102-613, stated change not applied, chain 1 of 2, other chains not shown) above
Chain of AIFΔ101 WT;CypA (P62937 whole entry, stated change not applied, chain 2 of 2): as the sequence (P62937 whole entry, stated change not applied, chain 2 of 3, other chains not shown) above

B1: 15-bp dsDNA (dsDNA)
DNA 1: GGTTAGTTATGCGCG
DNA 2: CGCGCATAACTAACC
By Kd is commonly meant the equilibrium constant for the complex coming apart. For the molecule B1, the Kd in data set [1] turned out to be 500 nM; in data set [2], 500 nM; in data set [3], 2900 nM; in data set [7], 9100 nM. Moreover, the binding result in data set [4], in data set [5] and in data set [6] was “binds” in each case.
